This is an account of results in publication PMC2642969 (Molecular cell, 2008).

Numbering of substitutions follows the chain as printed. In names and notes the source's numbering stands. Like-named read-outs stand apart in the source and are kept apart here.

The target of test [1] is T1, FLAG-dKDM4A (recombinant, Sf21) (Drosophila melanogaster, UniProt Q9V333 1-495).
T1 sequence (looked up): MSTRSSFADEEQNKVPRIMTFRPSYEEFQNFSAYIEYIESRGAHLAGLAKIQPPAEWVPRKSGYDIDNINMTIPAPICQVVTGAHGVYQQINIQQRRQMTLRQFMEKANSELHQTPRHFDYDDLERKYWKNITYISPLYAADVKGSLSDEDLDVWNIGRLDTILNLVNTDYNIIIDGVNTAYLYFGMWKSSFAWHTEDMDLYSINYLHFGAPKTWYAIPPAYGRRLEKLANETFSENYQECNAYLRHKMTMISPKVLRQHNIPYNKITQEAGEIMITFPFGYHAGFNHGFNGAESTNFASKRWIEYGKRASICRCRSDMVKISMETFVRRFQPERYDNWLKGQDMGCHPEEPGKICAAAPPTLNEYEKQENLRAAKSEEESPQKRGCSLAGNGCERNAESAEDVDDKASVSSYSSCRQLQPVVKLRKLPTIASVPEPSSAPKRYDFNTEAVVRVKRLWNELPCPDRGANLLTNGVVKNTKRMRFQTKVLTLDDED
Put plainly: co-IP.

In test [2] the target is T1, FLAG-dKDM4A (recombinant, Sf21). Put plainly: co-IP. The source holds these as a separate data set.

B1: HA-HP1a (recombinant, full-length) (natural protein, Drosophila melanogaster, UniProt P05205 1-206, looked up)
chain: MGKKIDNPESSAKVSDAEEEEEEYAVEKIIDRRVRKGKVEYYLKWKGYPETENTWEPENNLDCQDLIQQYEASRKDEEKSAASKKDRPSSSAKAKETQGRASSSTSTASKRKSEEPTAPSGNKSKRTTDAEQDTIPVSGSTGFDRGLEAEKILGASDNNGRLTFLIQFKGVDQAEMVPSSVANEKIPRMVIHFYEERLSWYSDNED
On to B1, for which, in test [1], the binding result is “binds”.

B2: HA-HP1a-V26M (natural protein, Drosophila melanogaster, UniProt P05205 1-206, looked up)
chain: B1 chain with V26M
For the molecule B2, the binding result in test [2] was “binds”.
